We go through 2 proteins from doi:10.1101/2022.11.18.516900v2.

Substrate in data set [1]: NC(=O)C1=CN([C@@H]2O[C@H](COP(=O)(O)OP(=O)(O)OC[C@H]3O[C@@H](n4cnc5c(N)ncnc54)[C@H](O)[C@@H]3O)[C@@H](O)[C@H]2O)C=CC1
The experiment in a line: purified protein. The settings on record: 300 μM methylene-H4F, 100 mM Mops/NaOH pH 7.0, 40 °C, under N2.

Substrate in data set [2]: Nc1nc2c(c(=O)[nH]1)N1CN(c3ccc(C(=O)N[C@@H](CCC(=O)O)C(=O)O)cc3)C[C@H]1CN2
Kind of data set: purified protein. The settings on record: 100 μM NADH, 100 mM Mops/NaOH pH 7.0, 40 °C, under N2.

Substitutions are numbered along the chain they refer to. Names may count otherwise.

B1: hMfr (Mycolicibacterium hassiacum DSM 44199) (protein)
chain: MTLNTIALELVPPNSDGPDGGREQAVEDARKVLRCAAETGLAGRIGHVMIPGMIEEDPDRPIPMKPKMDVLDFWTIIRPELPGIRGLCTQVTAFLDEPALRRRLGDLSAAGFDGIAFVGVPRTMNDGEGHGVAPTDALSMFADLVPNRGAILIPTRDGEQGRFEFKCERGATYGMTQLLYSDAIVGFLREFARRTDHRPEILLSFGFVPKLEAKVGLINWLIQDPGNPAVAAEQEFVRRLAGLEPADKRKLMVDLYKRVIDGVADLGFPLSVHLEATYGVSVPAFETFAEMLAYWSPGQG
As for B1, the Km – broadly, the concentration of substrate that gives half-maximal velocity – was 16 ± 3 µM in “purified protein [1]” and 160 ± 62 µM in the data set “purified protein [2]”. The kcat – broadly, the number of substrate molecules converted per active site and unit of time at saturation – in the data set “purified protein [1]” is 9 ± 0.383 s⁻¹; in the data set “purified protein [2]”, 9.83 ± 1.42 s⁻¹.

B2: hMfr (Mycolicibacterium hassiacum DSM 44199; E9Q) (protein)
chain: B1 chain with E9Q
As to B2, the values for the Michaelis-Menten constant (Km) in “purified protein [1]” and in “purified protein [2]” were 44 ± 13 µM and 250 ± 59 µM, respectively. For the same protein, the kcat in the data set “purified protein [1]” is 0.0183 ± 0.0017 s⁻¹; in the data set “purified protein [2]”, 0.0217 ± 0.0017 s⁻¹.
